In paper PMC10786891, “Massively parallel profiling of RNA-targeting CRISPR-Cas13d”:
Residue numbers refer to the chain shown, from its start. In names and notes the source's numbering stands.

T1: EsCas13d, nuclease-dead (Eubacterium siraeum, UniProt B0MS50, R295A;H300A;R849A;H854A)
T1 sequence: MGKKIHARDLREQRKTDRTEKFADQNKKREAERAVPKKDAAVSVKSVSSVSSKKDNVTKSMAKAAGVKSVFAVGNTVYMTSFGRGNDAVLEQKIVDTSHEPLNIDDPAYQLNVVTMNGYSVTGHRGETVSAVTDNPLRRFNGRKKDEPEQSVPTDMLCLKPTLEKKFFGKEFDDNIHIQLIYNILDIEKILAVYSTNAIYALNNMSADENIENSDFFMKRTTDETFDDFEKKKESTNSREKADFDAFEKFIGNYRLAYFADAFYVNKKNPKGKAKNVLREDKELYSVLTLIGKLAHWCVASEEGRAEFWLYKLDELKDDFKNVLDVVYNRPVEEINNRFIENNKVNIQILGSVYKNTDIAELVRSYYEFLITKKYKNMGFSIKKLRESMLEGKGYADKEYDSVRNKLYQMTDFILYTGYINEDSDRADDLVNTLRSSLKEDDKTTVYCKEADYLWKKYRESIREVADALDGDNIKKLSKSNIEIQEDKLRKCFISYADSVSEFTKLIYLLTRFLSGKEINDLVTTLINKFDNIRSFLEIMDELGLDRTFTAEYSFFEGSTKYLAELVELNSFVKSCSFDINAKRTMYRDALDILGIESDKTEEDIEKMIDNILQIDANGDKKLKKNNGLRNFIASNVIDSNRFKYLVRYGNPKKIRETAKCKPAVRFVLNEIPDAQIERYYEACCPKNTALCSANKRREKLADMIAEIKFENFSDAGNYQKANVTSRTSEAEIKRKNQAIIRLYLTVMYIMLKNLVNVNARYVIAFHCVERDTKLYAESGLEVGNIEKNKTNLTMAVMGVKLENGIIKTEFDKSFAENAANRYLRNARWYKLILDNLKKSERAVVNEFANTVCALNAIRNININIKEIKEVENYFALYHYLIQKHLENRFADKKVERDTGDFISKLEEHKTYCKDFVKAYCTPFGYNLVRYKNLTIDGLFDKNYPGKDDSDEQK

B1: target 2 MT 5'PFS CAC 3'PFS AGC (mixed)
RNA 1: CACCCGUGCAAAAUUGCAGGGGUCUAAAACCUUCUCCAAAUUGUUUCAUCCU
RNA 2: GGGAAUGGAUCCACAUCUACGAAUUCCACAGGAUGAAACAAUUUGGAGAAGAGCAGAUCGGAAGAGCACACGU
B2: target 2 MT 5'PFS UGG 3'PFS UUC (mixed)
RNA 1: B1 RNA 1
RNA 2: B1 RNA 2 with C27U, A28G, C29G, A52U, G53U
B3: target 2 MT 5'PFS GUU 3'PFS CUG (mixed)
RNA 1: B1 RNA 1
RNA 2: B1 RNA 2 with C27G, A28U, C29U, A52C, G53U, C54G
B4: target 2 MT 5'PFS GUU 3'PFS CUA (mixed)
RNA 1: B1 RNA 1
RNA 2: B1 RNA 2 with C27G, A28U, C29U, A52C, G53U, C54A
B5: target 2 MT 5'PFS GCU 3'PFS CAG (mixed)
RNA 1: B1 RNA 1
RNA 2: B1 RNA 2 with C27G, A28C, C29U, A52C, G53A, C54G
B6: target 2 MT 5'PFS GAG 3'PFS CUG (mixed)
RNA 1: B1 RNA 1
RNA 2: B1 RNA 2 with C27G, C29G, A52C, G53U, C54G
B7: target 2 MT 5'PFS GCA 3'PFS UCC (mixed)
RNA 1: B1 RNA 1
RNA 2: B1 RNA 2 with C27G, A28C, C29A, A52U, G53C
B8: target 2 MT 5'PFS UUA 3'PFS UCU (mixed)
RNA 1: B1 RNA 1
RNA 2: B1 RNA 2 with C27U, A28U, C29A, A52U, G53C, C54U
B9: target 2 MT 5'PFS GUU 3'PFS CUC (mixed)
RNA 1: B1 RNA 1
RNA 2: B1 RNA 2 with C27G, A28U, C29U, A52C, G53U
B10: target 2 MT 5'PFS CAU 3'PFS UAA (mixed)
RNA 1: B1 RNA 1
RNA 2: B1 RNA 2 with C29U, A52U, G53A, C54A
B11: target 2 MT 5'PFS CAC 3'PFS CGC (mixed)
RNA 1: B1 RNA 1
RNA 2: B1 RNA 2 with A52C
B12: target 2 MT 5'PFS GAG 3'PFS CUA (mixed)
RNA 1: B1 RNA 1
RNA 2: B1 RNA 2 with C27G, C29G, A52C, G53U, C54A
B13: target 2 MT 5'PFS UUA 3'PFS UCA (mixed)
RNA 1: B1 RNA 1
RNA 2: B1 RNA 2 with C27U, A28U, C29A, A52U, G53C, C54A
B14: target 2 MT 5'PFS UAU 3'PFS CCG (mixed)
RNA 1: B1 RNA 1
RNA 2: B1 RNA 2 with C27U, C29U, A52C, G53C, C54G
B15: target 2 MT 5'PFS CAC 3'PFS CGA (mixed)
RNA 1: B1 RNA 1
RNA 2: B1 RNA 2 with A52C, C54A
B16: target 2 MT 5'PFS CAU 3'PFS UAG (mixed)
RNA 1: B1 RNA 1
RNA 2: B1 RNA 2 with C29U, A52U, G53A, C54G
B17: target 2 MT 5'PFS GAC 3'PFS UCG (mixed)
RNA 1: B1 RNA 1
RNA 2: B1 RNA 2 with C27G, A52U, G53C, C54G
B18: target 2 MT 5'PFS GCU 3'PFS CAC (mixed)
RNA 1: B1 RNA 1
RNA 2: B1 RNA 2 with C27G, A28C, C29U, A52C, G53A
B19: target 2 MT 5'PFS GCA 3'PFS UCU (mixed)
RNA 1: B1 RNA 1
RNA 2: B1 RNA 2 with C27G, A28C, C29A, A52U, G53C, C54U
B20: target 2 MT 5'PFS GAC 3'PFS UCA (mixed)
RNA 1: B1 RNA 1
RNA 2: B1 RNA 2 with C27G, A52U, G53C, C54A
B21: target 2 MT 5'PFS CAU 3'PFS UAC (mixed)
RNA 1: B1 RNA 1
RNA 2: B1 RNA 2 with C29U, A52U, G53A
B22: target 2 MT 5'PFS GGA 3'PFS AUC (mixed)
RNA 1: B1 RNA 1
RNA 2: B1 RNA 2 with C27G, A28G, C29A, G53U
B23: target 2 MT 5'PFS CAU 3'PFS UAU (mixed)
RNA 1: B1 RNA 1
RNA 2: B1 RNA 2 with C29U, A52U, G53A, C54U
B24: target 2 MT 5'PFS UUU 3'PFS CCG (mixed)
RNA 1: B1 RNA 1
RNA 2: B1 RNA 2 with C27U, A28U, C29U, A52C, G53C, C54G
B25: target 2 MT 5'PFS GGA 3'PFS AUA (mixed)
RNA 1: B1 RNA 1
RNA 2: B1 RNA 2 with C27G, A28G, C29A, G53U, C54A
B26: target 2 MT 5'PFS GAG 3'PFS CUC (mixed)
RNA 1: B1 RNA 1
RNA 2: B1 RNA 2 with C27G, C29G, A52C, G53U
B27: target 2 MT 5'PFS UAU 3'PFS CCA (mixed)
RNA 1: B1 RNA 1
RNA 2: B1 RNA 2 with C27U, C29U, A52C, G53C, C54A
B28: target 2 MT 5'PFS GGA 3'PFS AUG (mixed)
RNA 1: B1 RNA 1
RNA 2: B1 RNA 2 with C27G, A28G, C29A, G53U, C54G
B29: target 2 MT 5'PFS GUU 3'PFS CUU (mixed)
RNA 1: B1 RNA 1
RNA 2: B1 RNA 2 with C27G, A28U, C29U, A52C, G53U, C54U
B30: target 2 MT 5'PFS GAC 3'PFS UCU (mixed)
RNA 1: B1 RNA 1
RNA 2: B1 RNA 2 with C27G, A52U, G53C, C54U
B31: target 1 G5A,C7U (mixed)
RNA 1: CACCCGUGCAAAAAUGCAGGGGUCUAAAACUGAGCGGAUAACCUCUCUAUGG
RNA 2: GGGAAUGGAUCCACAUCUACGAAUUCGUACCAUAGAGAGGUUAUUCACUCACCGAGAUCGGAAGAGCACACGU
B32: target 1 G15U,A16G (mixed)
RNA 1: B31 RNA 1
RNA 2: B31 RNA 2 with A36G, G37U, U45C, A47G
B33: target 1 insA 3' of 21,insU 3' of 13 (mixed)
RNA 1: B31 RNA 1
RNA 2: GGGAAUGGAUCCACAUCUACGAAUUCGUACCAAUAGAGAGUGUUAUCCGCUCACCGAGAUCGGAAGAGCACACGU

Each binder was assayed against T1, EsCas13d, nuclease-dead (assay: crRNA (strand 1, pre-loaded); Mg2+; 40 mM Tris-HCl pH 7.5, 150 mM NaCl, 6 mM MgCl2, 1 mM DTT, 0.1% Tween-20, 0.2 mg/ml BSA; 25 C; 10 min per concentration, then washed). Details: tags: His6-TwinStrep-SUMO cleaved; N-terminal SNAP kept (SNAP-Surface 488); label: 3' end held by stalled T7 RNA polymerase.

First: B1
Second: B2
The Kd of the first is 10-fold lower: 1.87 ± 0.32 nM for the first, 19.2 ± 2.8 nM for the second.

First: B3
Second: B4
The Kd of the first is 1.5-fold higher: 21.3 ± 2.8 nM for the first, 14 ± 1.9 nM for the second. The second binds more tightly here.

Going from B5 to B6, the Kd falls from 17 ± 4 nM to 8.1 ± 0.8 nM (2.1-fold).

B7 and B8 are within error of each other in Kd: 32 ± 4 nM for the first, 28 ± 4 nM for the second.

Going from B9 to B10, the Kd falls from 20.4 ± 2.3 nM to 4.7 ± 0.8 nM (4.3-fold).

First: B11
Second: B12
The Kd of the first is 4.7-fold lower: 1.69 ± 0.2 nM for the first, 7.9 ± 1.1 nM for the second.

First: B13
Second: B14
The Kd of the first is 2.8-fold lower: 20 ± 4 nM for the first, 55 ± 8 nM for the second. The first binds more tightly here.

First: B15
Second: B16
The Kd of the first is 1.9-fold lower: 3.01 ± 0.34 nM for the first, 5.6 ± 1.2 nM for the second. The first binds more tightly here.

Going from B17 to B18, the Kd falls from 15.2 ± 2.7 nM to 10 ± 1.7 nM (1.5-fold). The second binds more tightly here.

B19 and B20 are within error of each other in Kd: 27 ± 12 nM for the first, 13.8 ± 3.4 nM for the second.

Compared with B21, B22 is 3.4-fold higher in Kd: 3.7 ± 0.7 nM for the first, 12.4 ± 1.9 nM for the second. The first binds more tightly here.

Going from B23 to B24, the Kd rises from 4 ± 0.4 nM to 9.8 ± 1 nM (2.5-fold). The first binds more tightly here.

B25 and B26 are within error of each other in Kd: 10.2 ± 1.5 nM for the first, 11.3 ± 1.2 nM for the second.

Compared with B27, B28 is 3.8-fold lower in Kd: 37 ± 15 nM for the first, 9.8 ± 0.9 nM for the second. The second binds more tightly here.

Compared with B29, B30 is 1.6-fold higher in Kd: 16.6 ± 1.6 nM for the first, 27 ± 6 nM for the second. The first binds more tightly here.

Going from B31 to B32, the Kd rises from 7.7 ± 0.5 nM to 27.1 ± 2.2 nM (3.5-fold). The first binds more tightly here.

B33 gave a Kd of 26 ± 9 nM.
